Legend:
[1] = test system: Akt and Erk phosphorylation in pro-inflammatory (M1) macrophages; assay: Western blot analysis ERK/Akt phosphorylation; assay type: cell-based, mice; details: 2 μg/mL; after 10 to 30 minutes of incubation; FIG. 17
Description: FIG. 17. Study of the CMKLR1 pathway activation: Akt and Erk phosphorylation. Western blot analysis of the ERK and AKT activation pathway after 5, 10 and 30 minutes of mice pro-inflammatory (M1) macrophages incubated with 2G1 or RvE1. The Phosphorylated protein Akt or Erk were assessed using P-Akt antibody or P-Erk antibody (p44/42). A. Erk and Akt activation with RvE1. B. Erk and Akt activation with 2G1.
Mice pro-inflammatory macrophages (M1) were generated from bone marrow with M-CSF and polarized with IFN-gamma (IFNg) and LPS. Briefly, bone marrow cells were collected by flushing the femoral bone and cultured with 100 ng/mL of mM-CSF for 5 days and then polarized with 20 ng/mL of IFNg and 100 ng/mL of LPS for 24 h. Then, they were deprived of FBS for 24 hours with RPMI FBS 2% medium. Finally, mice pro-inflammatory macrophages were treated with 2 μg/mL of 2G1 antibody at different times: 5, 10 and 30 minutes. Cells were collected in a RIPA buffer. The protein concentration was measured by a BCA protein kit assay. Proteins were denatured by heating at 95° C. for 5 minutes and diluted in DTT and Laemmli solution. After migration and transfer, the nitrocellulose membrane was blocked with 5% BSA in TBS-T for 2 hours. […] Western blot Images were quantified by Multi Gauge software

[2] = target: T1, CMKLR1 receptor (CHO-K1 CMKLR1 Gi cells) (Homo sapiens, UniProt Q99788); assay: competition with Chemerin in the production of cAMP by CMKLR1 receptor; assay type: cell-based; details: antibody 1 μM to 1 nM, chemerin 2 nM; FIG. 18A
T1 construct: host or cells: CHO-K1
T1 sequence (Q99788 1-373): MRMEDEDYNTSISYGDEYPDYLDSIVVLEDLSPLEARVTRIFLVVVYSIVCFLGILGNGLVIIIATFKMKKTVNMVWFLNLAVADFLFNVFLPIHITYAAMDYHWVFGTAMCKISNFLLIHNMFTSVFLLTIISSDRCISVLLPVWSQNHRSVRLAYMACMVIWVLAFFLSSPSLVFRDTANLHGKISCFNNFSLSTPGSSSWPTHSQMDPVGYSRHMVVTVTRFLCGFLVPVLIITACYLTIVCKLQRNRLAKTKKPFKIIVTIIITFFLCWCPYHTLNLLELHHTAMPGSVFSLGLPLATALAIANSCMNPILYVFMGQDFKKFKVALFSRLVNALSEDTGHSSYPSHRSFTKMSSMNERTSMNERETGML
Description: The day before the experiment CHO-K1 CMKLR1 Gi cells (Discover'X ref 95-0080C2) were plated in pre-warmed cell reagent then plated in a 96-well plate at 100 μl/well of cells as (Discover'X ref 15-103) and incubated 24 hours at 37° C., in a 5% CO2 humidified incubator for 24 hours.
For the detection cAMP, antibody reagent and cAMP working detection solution was added to the plate for 1 hour at room temperature, then cAMP solution A was added, and cells incubated 3 hours at room temperature in the dark. Bioluminescence was read with a plate reader with 0.5s integration.

[3] = test system: PMN from healthy volunteers or ANCA patients; assay: Neutrophils transmigration through endothelial monolayer (HDMEC transwell); assay type: cell-based, human
Description: Endothelial cells were coated and +/−activated with 100 U/mL of TNFa overnight. Then PMN were added with or without TNFa at 100 U/mL and Ab for two hours. The transmigrated PMN were collected and analyzed by flow cytometry.
Human endothelial cells (HDMEC) were incubated for 24 h in the transwell coated with gelatin and activated overnight with TNF-alpha at 100 U/mL or without inflammatory conditions. Then, PMN from healthy volunteers or ANCA patients were incubated in transwell containing the monolayer of HDMEC for 4 hours. Antibodies (Iso Ctrl and 2G1) were added at 10 μg/mL+/−TNF-alpha at 100 U/mL during the 4 hours of the transmigration assay. The lower transmigrated part of the transwell was collected and the transmigrated PMN were counted by flow cytometry using counting beads.

Hepa 1.6 cells = assay: Hepatocarcinoma model (HCC), orthotopic murine hepatoma; assay type: in vivo, mice; details: anti-CMKLR1 0.8 mg/kg three times per week, anti-PD1 8 mg/kg, 2 weeks; followed sixty days; FIG. 20
Description: FIG. 20. Effect of an anti-CMKLR1 antibody on a Hepatocarcinoma mice model (HCC model). Anti-tumor effect of anti-CMKLR1 antibody (2G1, 0.8 mg/kg) i.p. administration three times a week for 2 weeks in combination (▴) or not (●) with two injections on day 4 and 8 of anti-PD1 mAb (RMP1-14 clone, 8 mg/kg) or with injections (twice a week) of anti-PD-1 antibody alone (Δ). Mice have been treated during 2 weeks in an orthotropic model of murine hepatoma (2.5.10^6 of Hepa 1.6 cells injected through the portal vein on day 0). Isotype control antibody was used at 0.8 mg/kg three times a week for 2 weeks. Mice response were considered partial (PR) when mice survive few days to 1 month after stop of treatment or complete (CR) when mice survive over 1 month or cured when they survive three times longer than the time necessary to all control mice dye.
Method: Mice were anesthetized with a cocktail of xylazine/ketamine. After a laparotomy, tumoral Hepa 1.6 cells were injected in PBS through the portal vein (2.5·10^6 cells/100 μL) in PBS. The treatment was started 4 days after tumor injection. The anti-CMKLR1 antibody (2G1clone) and the hIgG1 istotype control were injected at 0.8 mg/kg three times per week during 2 weeks. The anti-PD1 monoclonal antibody was injected twice a week during 2 weeks intraperitoneally in PBS (8 mg/kg). […]

[4] = target: T2, CMKLR1 peptide (loop EL3 of CMKLR1, SEQ ID No: 60) (Homo sapiens, UniProt Q99788); assay: ELISA binding on CMKLR1 peptide; details: compared to isotype control; FIG. 12
T2 sequence (Q99788 275-307 limits assumed): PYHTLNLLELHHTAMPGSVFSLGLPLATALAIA
Description: FIG. 12. Binding analysis of the anti-CMKLR1 antibody on a CMKLR1 peptide by ELISA. The binding of the 2G1 antibody (□) on the CMKLR1 EL3 loop (SEQ ID No: 18) was compared to the isotype control antibody (3G8) (x) by measuring the OD at 450 nm by ELISA.
CMKLR1 peptide (273NH2-[…]-COOH305) (SEQ ID No: 60) (5 μg/ml) was coated in borate buffer overnight. Saturation was performed with PBS-Tween 0.1%-Gelatin 0.25% for 2 hours at 37° C. Then, 2G1 or hIgG1 antibodies were added at different concentrations for 2 hours at 37° C. […] The colorimetric reaction was read with TECAN.

B1: 2G1: parental chimeric anti-CMKLR1 antibody: heavy chain variable domain SEQ ID No. 37, light chain variable domain SEQ ID No. 49 (antibody, V domains shown)
VH: EVQLVASGGGLVQPGGSLKLSCAASGFTFSSYGMSWVRQTPDRRLELVATINRYGGSTYYPDSVKGRFTISRDNAKNTLYLQMSSLKSEDTAMYYCPRLIYYGNEGDSWGQGTTLTVSS
VL: QIVLTQSPAIMSASPGEKVTMTCSASSSVSFMHWYQQKSGTSPKRWIYDTTKLTSGVPARFSGSGSGTFYSLTISSMEAEDAATYYCQQWNSKPPLTFGPGTKLELKR
- activation of Akt and Erk proteins (phosphorylation) [1]: able to induce the activation of both Akt and Erk proteins
- Chemerin-induced inhibition of forskolin-dependent cAMP production [2]: could not revert this inhibition of production
- transmigration capability of neutrophils ([3]; 10 μg/mL, compared to control compounds, FIG. 28A): lower transmigration capability
- PMN transmigration through endothelial monolayer under inflammatory condition ([3]; PMN and endothelial cells activated with TNFa, healthy volunteers and patients, FIG. 28B): avoids PMN transmigration
- survival rate (treated animals with prolonged survival) (Hepa 1.6 cells): 15%
- binding on the CMKLR1 EL3 loop peptide (OD at 450 nm) [4]: able to bind the polypeptide forming the loop EL3 of CMKLR1

Source: patent publication US12534533B2, “Anti-chemokine like receptor 1 humanized antibodies and their therapeutic applications” (OSE IMMUNOTHERAPEUTICS, priority 2019, dated 2026)
